Common to all, as to test: cell-based or functional assay
The target in assay [1] is human glucagon receptor (human, UniProt P47871 26-477).
Target sequence in this assay (P47871 26-477): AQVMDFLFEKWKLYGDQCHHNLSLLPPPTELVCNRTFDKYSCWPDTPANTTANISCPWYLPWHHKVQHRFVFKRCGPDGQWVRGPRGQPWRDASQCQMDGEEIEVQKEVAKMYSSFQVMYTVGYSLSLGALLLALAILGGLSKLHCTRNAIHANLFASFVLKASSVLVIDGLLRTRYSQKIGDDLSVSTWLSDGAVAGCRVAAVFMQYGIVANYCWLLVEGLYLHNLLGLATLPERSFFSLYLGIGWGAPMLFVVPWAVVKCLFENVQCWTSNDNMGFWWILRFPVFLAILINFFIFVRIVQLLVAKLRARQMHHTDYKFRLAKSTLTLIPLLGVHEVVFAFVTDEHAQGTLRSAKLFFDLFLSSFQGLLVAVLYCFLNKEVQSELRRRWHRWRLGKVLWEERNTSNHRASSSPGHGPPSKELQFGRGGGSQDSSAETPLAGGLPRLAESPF
In assay [2] the target is human glucagon-like peptide-1 receptor (human, UniProt P43220 24-463).
The target of assay [3] is human glucagon receptor (human, UniProt P47871 26-477). This is another data set of the same source.
Target sequence in this assay (P47871 26-477): as above
The target in the next assay is human GLP-1 receptor (human, UniProt P43220 24-463).

Where no end group is shown, it is not given here. [ ]: non-standard residue; d: D form. Aib = CC(C)(N)C(=O)O

B1: Conjugate 25435: Fc SEFL2 T487C-15997 (other)
chain 1: DKTHTCPPCPAPELLGGPSVFLFPPKPKDTLMISRTPEVTCVVVDVSHEDPEVKFNWYVDGVEVHNAKTKPCEEQYGSTYRCVSVLTVLHQDWLNGKEYKCKVSNKALPAPIEKTISKAKGQPREPQVYTLPPSREEMCKNQVSLTCLVKGFYPSDIAVEWESNGQPENNYKTTPPVLDSDGSFFLYSKLTVDKSRWQQGNVFSCSVMHEALHNHYTQKSLSLSPGK
peptide: H[dS]QGTFTSDYSKYLD[Aib]RRAQDFVQWLLKT
chain 2: Ac-GSPAPAPAPAPAPAPAPAPAPASGG
modifications: not fully specified; also: thioether at chain A 139 to a chain's N-terminus via acetyl, bond at chain B 28 to a chain's C-terminus
For B1, the “hGCGR EC50 (pM)” value in the assay with human glucagon receptor [1] came to 9.1 pM. The “hGLP-1R EC50 (pM)” value in assay [2] is 9770 pM.

B2: Conjugate 40741: aGIPR 5G12 SEFL2 E384C-39903 (other)
heavy: QVQLVESGGGVVQPGRSLRLSCTASGFTFSSYGIHWVRQAPGKGLEWVAVIWYDGSNKFHADSVKGRFTISRDNSKNTLYLQMNSLRAEDSAMYFCARGKVAGMPEAFEIWGQGTKVTVSSASTKGPSVFPLAPSSKSTSGGTAALGCLVKDYFPEPVTVSWNSGALTSGVHTFPAVLQSSGLYSLSSVVTVPSSSLGTQTYICNVNHKPSNTKVDKKVEPKSCDKTHTCPPCPAPELLGGPSVFLFPPKPKDTLMISRTPEVTCVVVDVSHEDPCVKFNWYVDGVEVHNAKTKPCEEQYGSTYRCVSVLTVLHQDWLNGKEYKCKVSNKALPAPIEKTISKAKGQPREPQVYTLPPSREEMTKNQVSLTCLVKGFYPSDIAVEWESNGQPENNYKTTPPVLDSDGSFFLYSKLTVDKSRWQQGNVFSCSVMHEALHNHYTQKSLSLSPGK
light: DIQLTQSPSSLSASVGDRVTITCRASQTISRFLNWYQQKPGKAPELLIYVASSLQSGVPSRFSGSGSGTDFTLTISSLQPEDFATYYCQQSYSTLISFGQGTKLEITRTVAAPSVFIFPPSDEQLKSGTASVVCLLNNFYPREAKVQWKVDNALQSGNSQESVTEQDSKDSTYSLSSTLTLSKADYEKHKVYACEVTHQGLSSPVTKSFNRGEC
peptide: HSQGTFTSDYSKYLDQRRAQDFVQWLLKT
chain: GSPAPAPAPAPAPAPAPAPAPASGG
modifications: N-term acetyl-thioether to Cys; d-Ser2; K28 eps-NH linked to linker C-term; C276 conjugated to linker
On to B2, for which the “hGCGR EC50 (pM)” value in the assay with human glucagon receptor [1] was 40.9 pM. Moreover, the “hGLP-1R EC50 (pM)” value in assay [2] amounted to 8020 pM.

B3: Conjugate 91659: aGIPR 5G12 SEFL2 E384C-91255 (other)
heavy: QVQLVESGGGVVQPGRSLRLSCTASGFTFSSYGIHWVRQAPGKGLEWVAVIWYDGSNKFHADSVKGRFTISRDNSKNTLYLQMNSLRAEDSAMYFCARGKVAGMPEAFEIWGQGTKVTVSSASTKGPSVFPLAPSSKSTSGGTAALGCLVKDYFPEPVTVSWNSGALTSGVHTFPAVLQSSGLYSLSSVVTVPSSSLGTQTYICNVNHKPSNTKVDKKVEPKSCDKTHTCPPCPAPELLGGPSVFLFPPKPKDTLMISRTPEVTCVVVDVSHEDPCVKFNWYVDGVEVHNAKTKPCEEQYGSTYRCVSVLTVLHQDWLNGKEYKCKVSNKALPAPIEKTISKAKGQPREPQVYTLPPSREEMTKNQVSLTCLVKGFYPSDIAVEWESNGQPENNYKTTPPVLDSDGSFFLYSKLTVDKSRWQQGNVFSCSVMHEALHNHYTQKSLSLSPGK
light: DIQLTQSPSSLSASVGDRVTITCRASQTISRFLNWYQQKPGKAPELLIYVASSLQSGVPSRFSGSGSGTDFTLTISSLQPEDFATYYCQQSYSTLISFGQGTKLEITRTVAAPSVFIFPPSDEQLKSGTASVVCLLNNFYPREAKVQWKVDNALQSGNSQESVTEQDSKDSTYSLSSTLTLSKADYEKHKVYACEVTHQGLSSPVTKSFNRGEC
peptide: HSQGTFTSDYSKYLDEKRAQEFVEWLLKS
chain: GGGGSGGGGSPAPAPAPAPAPASGG
modifications: N-terminus conjugated to heavy-chain Cys; d-Ser2; K28 side chain amide-linked to linker C-terminus; C276 conjugated to linker
For the molecule B3, the “hGCGR EC50 (pM)” value with human glucagon receptor [3] turned out to be 152 pM. Moreover, the “hGLP-1R EC50 (pM)” value in the assay with human GLP-1 receptor is 6750 pM.

B4: Conjugate 88013: aGIPR 5G12 SEFL2 E384C-87021 (other)
heavy: QVQLVESGGGVVQPGRSLRLSCTASGFTFSSYGIHWVRQAPGKGLEWVAVIWYDGSNKFHADSVKGRFTISRDNSKNTLYLQMNSLRAEDSAMYFCARGKVAGMPEAFEIWGQGTKVTVSSASTKGPSVFPLAPSSKSTSGGTAALGCLVKDYFPEPVTVSWNSGALTSGVHTFPAVLQSSGLYSLSSVVTVPSSSLGTQTYICNVNHKPSNTKVDKKVEPKSCDKTHTCPPCPAPELLGGPSVFLFPPKPKDTLMISRTPEVTCVVVDVSHEDPCVKFNWYVDGVEVHNAKTKPCEEQYGSTYRCVSVLTVLHQDWLNGKEYKCKVSNKALPAPIEKTISKAKGQPREPQVYTLPPSREEMTKNQVSLTCLVKGFYPSDIAVEWESNGQPENNYKTTPPVLDSDGSFFLYSKLTVDKSRWQQGNVFSCSVMHEALHNHYTQKSLSLSPGK
light: DIQLTQSPSSLSASVGDRVTITCRASQTISRFLNWYQQKPGKAPELLIYVASSLQSGVPSRFSGSGSGTDFTLTISSLQPEDFATYYCQQSYSTLISFGQGTKLEITRTVAAPSVFIFPPSDEQLKSGTASVVCLLNNFYPREAKVQWKVDNALQSGNSQESVTEQDSKDSTYSLSSTLTLSKADYEKHKVYACEVTHQGLSSPVTKSFNRGEC
peptide: HSQGTFTSDYSKYLDAKRAQEFVEWLLKS
chain: GGGGSGGGGSPAPAPAPAPAPASGG
modifications: N-terminus conjugated to heavy-chain Cys; K28 side chain amide-linked to linker C-terminus; C276 conjugated to linker
Consider B4, for which the “hGCGR EC50 (pM)” value with human glucagon receptor [3] worked out at 41.3 pM.

B5: Conjugate 92868: aGIPR 5G12 SEFL2 E384C-92840 (other)
heavy: QVQLVESGGGVVQPGRSLRLSCTASGFTFSSYGIHWVRQAPGKGLEWVAVIWYDGSNKFHADSVKGRFTISRDNSKNTLYLQMNSLRAEDSAMYFCARGKVAGMPEAFEIWGQGTKVTVSSASTKGPSVFPLAPSSKSTSGGTAALGCLVKDYFPEPVTVSWNSGALTSGVHTFPAVLQSSGLYSLSSVVTVPSSSLGTQTYICNVNHKPSNTKVDKKVEPKSCDKTHTCPPCPAPELLGGPSVFLFPPKPKDTLMISRTPEVTCVVVDVSHEDPCVKFNWYVDGVEVHNAKTKPCEEQYGSTYRCVSVLTVLHQDWLNGKEYKCKVSNKALPAPIEKTISKAKGQPREPQVYTLPPSREEMTKNQVSLTCLVKGFYPSDIAVEWESNGQPENNYKTTPPVLDSDGSFFLYSKLTVDKSRWQQGNVFSCSVMHEALHNHYTQKSLSLSPGK
light: DIQLTQSPSSLSASVGDRVTITCRASQTISRFLNWYQQKPGKAPELLIYVASSLQSGVPSRFSGSGSGTDFTLTISSLQPEDFATYYCQQSYSTLISFGQGTKLEITRTVAAPSVFIFPPSDEQLKSGTASVVCLLNNFYPREAKVQWKVDNALQSGNSQESVTEQDSKDSTYSLSSTLTLSKADYEKHKVYACEVTHQGLSSPVTKSFNRGEC
peptide: HSQGTFTSDYSKYLDEKRAREFVEWLLKS
chain: GGGGSGGGGSPAPAPAPAPAPASGG
modifications: N-terminus conjugated to heavy-chain Cys; d-Ser2; K28 side chain amide-linked to linker C-terminus; C276 conjugated to linker
With B5, in the assay with human glucagon receptor [3], the “hGCGR EC50 (pM)” value amounted to 127 pM. The “hGLP-1R EC50 (pM)” value in the assay with human GLP-1 receptor worked out at 289 pM.

Source of the values: patent publication US20250276080A1 (Amgen, published 2025).
